# Test results as given in paper PMC2833280.
# Where a chain is given by its changes, count along the chain named. In names and notes the source's numbering stands.
# B1: β-LS (β-lactam synthetase) (Streptomyces clavuligerus; Y348F) (protein)
# chain: MGAPVLPAAFGFLASARTGGGRAPGPVFATRGSHTDIDTPQGERSLAATLVHAPSVAPDRAVARSLTGAPTTAVLAGEIYNRDELLSVLPAGPAPEGDAELVLRLLERYDLHAFRLVNGRFATVVRTGDRVLLATDHAGSVPLYTCVAPGEVRASTEAKALAAHRDPKGFPLADARRVAGLTGVYQVPAGAVMDIDLGSGTAVTHRTWTPGLSRRILPEGEAVAAVRAALEKAVAQRVTPGDTPLVVLSGGIDSSGVAACAHRAAGELDTVSMGTDTSNEFREARAVVDHLRTRHREITIPTTELLAQLPYAVWASESVDPDIIEYLLPLTALYRALDGPERRILTGFGADIPLGGMHREDRLPALDTVLAHDMATFDGLNEMSPVLSTLAGHWTTHPYWDREVLDLLVSLEAGLKRRHGRDKWVLRAAMADALPAETVNRPKLGVHEGSGTTSSFSRLLLDHGVAEDRVHEAKRQVVRELFDLTVGGGRHPSEVDTDDVVRSVADRTARGAA
# B2: β-LS (β-lactam synthetase) (Streptomyces clavuligerus; Y348A) (protein)
# chain: B1 chain with F348A
# B3: β-LS (β-lactam synthetase) (Streptomyces clavuligerus) (protein)
# chain: B1 chain with F348Y
# B4: β-LS (β-lactam synthetase) (Streptomyces clavuligerus; E382D) (protein)
# chain: B1 chain with F348Y, E382D
# How the values were obtained:
# purified protein [1] = substrate: N=C(N)NCCC[C@H](NCCC(=O)O)C(=O)O; test: purified protein; type: biochemical, Streptomyces clavuligerus; settings: pH 8.8, 25 °C, saturating ATP (2-4 mM), ionic strength 0.1
# purified protein [2] = substrate: O=C(O)C[C@@H]1CC[C@@H](C(=O)O)N1; test: purified protein; type: biochemical, Streptomyces clavuligerus; settings: pH 8.3, 25 °C, 2 mM ATP, ionic strength 0.1
Protein,Km (purified protein [1]),kcat (purified protein [1]),kcat/Km (purified protein [1]),Km (purified protein [2]),kcat (purified protein [2])
B1,1400 ± 200 µM,0.155 ± 0.007 s⁻¹,110 ± 20 M⁻¹ s⁻¹,,
B2,190 ± 20 µM,0.0082 ± 0.0002 s⁻¹,43 ± 4 M⁻¹ s⁻¹,,
B3,,,,4900 ± 700 µM,0.026 ± 0.002 s⁻¹
B4,2800 ± 200 µM,0.193 ± 0.006 s⁻¹,69 ± 6 M⁻¹ s⁻¹,,
